In series [1] the test system is Bend3 mouse endothelial cells; ABAE, bovine aortic endothelial cells; HUVEC, human umbilical vein endothelial cells. The experiment in a line: Direct binding of biotinylated 6-His endostatin to endothelial cells in vitro. The series is classed as cell-based. The settings on record: three endothelial cell types. The text has this:
Binding was detected using streptavidin-peroxidase in conjunction with O-phenylenediamine (OPD) and the absorbance read at 490 nm.

Series [2] is described as follows: GUS enzymatic activity (cleavage of substrate). Type of series: biochemical. The text has this:
The 6-His GUS was pure based upon SDS-PAGE, where it ran as a single band of 75 kDa band. On gel filtration columns, the 6-His GUS runs as a tetramer of about 300 kDa.
The biological activity of each component of the 2C3-GUS conjugate was confirmed.

B1: (Biotinylated 6-His) endostatin: mouse endostatin with N-terminal 6×histidine tag expressed in E. coli, biotinylated (protein, UniProt P39060 1572-1754, looked up)
Endostatin: HSHRDFQPVLHLVALNSPLSGGMRGIRGADFQCFQQARAVGLAGTFRAFLSSRLQDLYSIVRRADRAAVPIVNLKDELLFPSWEALFSGSEGPLKPGARIFSFDGKDVLRHPTWPQKSVWHGSDPNGRRLTESYCETWRTEAPSATGQASSLLGGRLLGQSAASCHHAYIVLCIENSFMTASK
modifications: Endostatin biotin label, His6 tag
Consider B1, for which the “Binding to endothelial cells in vitro” value in series [1] is listed as “bound in a saturable fashion”.

B2: 6-His GUS: E. coli β-glucuronidase with N-terminal 6×histidine tag (protein, UniProt P05804 1-603, looked up)
Beta-glucuronidase: MLRPVETPTREIKKLDGLWAFSLDRENCGIDQRWWESALQESRAIAVPGSFNDQFADADIRNYAGNVWYQREVFIPKGWAGQRIVLRFDAVTHYGKVWVNNQEVMEHQGGYTPFEADVTPYVIAGKSVRITVCVNNELNWQTIPPGMVITDENGKKKQSYFHDFFNYAGIHRSVMLYTTPNTWVDDITVVTHVAQDCNHASVDWQVVANGDVSVELRDADQQVVATGQGTSGTLQVVNPHLWQPGEGYLYELCVTAKSQTECDIYPLRVGIRSVAVKGEQFLINHKPFYFTGFGRHEDADLRGKGFDNVLMVHDHALMDWIGANSYRTSHYPYAEEMLDWADEHGIVVIDETAAVGFNLSLGIGFEAGNKPKELYSEEAVNGETQQAHLQAIKELIARDKNHPSVVMWSIANEPDTRPQGAREYFAPLAEATRKLDPTRPITCVNVMFCDAHTDTISDLFDVLCLNRYYGWYVQSGDLETAEKVLEKELLAWQEKLHQPIIITEYGVDTLAGLHSMYTDMWSEEYQCAWLDMYHRVFDRVSAVVGEQVWNFADFATSQGILRVGGNKKGIFTRDRKPKSAAFLLQKRWTGMNFGEKPQQGGKQ
modifications: His6 tag
B2: the “Enzymatic activity of GUS” value in series [2] is “enzymatically active”.

These data come from US6887468B1 (Board of Regents, The University of Texas System, priority 1999, dated 2005).
